Experiment [1] concerns the target T1, human FLT3 (Fms Related Receptor Tyrosine Kinase 3) expressed on cells (human, UniProt P36888 27-993).
T1 construct: whole, on cells; Same entry used for all cell lines; also called FLK2
T1 sequence (looked up): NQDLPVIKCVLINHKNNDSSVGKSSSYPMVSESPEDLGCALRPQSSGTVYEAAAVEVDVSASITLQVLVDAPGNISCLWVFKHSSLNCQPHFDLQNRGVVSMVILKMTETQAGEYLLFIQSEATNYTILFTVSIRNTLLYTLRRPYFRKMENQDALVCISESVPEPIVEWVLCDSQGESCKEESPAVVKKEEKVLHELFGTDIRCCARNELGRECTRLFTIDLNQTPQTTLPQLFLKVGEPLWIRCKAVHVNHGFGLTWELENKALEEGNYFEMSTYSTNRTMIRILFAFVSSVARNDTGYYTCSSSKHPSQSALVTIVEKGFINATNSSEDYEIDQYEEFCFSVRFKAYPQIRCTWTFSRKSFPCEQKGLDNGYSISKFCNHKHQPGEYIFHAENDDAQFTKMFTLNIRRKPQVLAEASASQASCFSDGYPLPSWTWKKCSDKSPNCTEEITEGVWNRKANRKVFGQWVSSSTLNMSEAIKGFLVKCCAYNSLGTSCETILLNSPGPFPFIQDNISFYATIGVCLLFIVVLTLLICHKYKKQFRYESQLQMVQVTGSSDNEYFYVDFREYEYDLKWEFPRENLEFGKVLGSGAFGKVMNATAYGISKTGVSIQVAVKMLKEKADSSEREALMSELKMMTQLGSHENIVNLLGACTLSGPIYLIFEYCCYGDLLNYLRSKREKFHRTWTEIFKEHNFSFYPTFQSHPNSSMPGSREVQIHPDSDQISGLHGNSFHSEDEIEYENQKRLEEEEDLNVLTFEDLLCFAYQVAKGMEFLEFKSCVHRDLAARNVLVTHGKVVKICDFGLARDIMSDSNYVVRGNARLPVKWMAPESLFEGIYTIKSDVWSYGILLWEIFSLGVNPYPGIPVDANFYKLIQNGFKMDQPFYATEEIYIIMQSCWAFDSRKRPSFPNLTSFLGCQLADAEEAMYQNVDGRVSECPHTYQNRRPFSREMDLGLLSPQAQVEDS
Kind of experiment: flow cytometry, chimeric antibody on FLT3-expressing REH cells.

Experiment [2] addresses T1, human FLT3 (Fms Related Receptor …). Kind of experiment: flow cytometry on FLT3-expressing REH cells. The text has this: Cells were washed five times with flow buffer and stained with anti-human IgG Fc antibody conjugated to Alexa Fluor 488 (Jackson Immunoresearch Laboratories, 109-545-008). Cells were stained with 7-AAD (7-AAD Viability Staining Solution, Biolegend 420404) followed by flow cytometry analysis. […] The antibodies used are as described in Example 1.

Experiment [3] has as its target T2, human CD3 on the surface of T cells / Jurkat cells (human, UniProt P07766 23-207; P09693 23-182; P04234 22-171).
T2 construct: whole, on cells
Kind of experiment: flow cytometry on CD3+ human T cells. The source says: (§1) Cells were washed five times with flow buffer and stained with anti-human IgG lambda antibody conjugated to FITC (Southern Biotech 2070-02). Cells were stained with 7-AAD (7-AAD Viability Staining Solution, Biolegend 420404) followed by flow cytometry analysis.

The target of experiment [4] is T1, human FLT3 (Fms Related Receptor …). Kind of experiment: cell-based or functional assay.
For experiment [5] the target is unchanged. The experiment in a line: flow cytometry on FLT3+ REH cells.
Source text: as §1

Experiment [6] has as its target T3, Recombinant Human CD3 epsilon Fc Chimera Protein (R&D, no. 9850-CD-050) (human, UniProt P07766 23-126).
T3 construct: Bought reagent; Fc part of the bought chimera not given
The experiment in a line: ELISA, plate coated with recombinant human CD3 epsilon Fc chimera. As to the method:
The plate was washed with wash buffer (PBS (Caisson Labs, no. PBL06)+0.05% Tween20 (ThermoFisher, no. 28320)) The plate was blocked with blocking buffer (PBS (Caisson Labs, no. PBL06)+1% (w/v) BSA (Rockland, no. BSA-50)+0.05% Tween20 (ThermoFisher, no 28320)) for two hours at room temperature (RT). Plate was washed twice with wash buffer. […] Plate was washed 4× with wash buffer. Plate was incubated with 100 μL per well of 1:200 goat anti-human lambda-HRP secondary antibody (SouthernBiotech, no. 2070-05) for one hour at RT. Plate was washed 4× with wash buffer. Plate was incubated with 100 μL per well of TMB Substrate (ThermoFisher Cat #34029) for 20 minutes protected from light. Stop solution (2N H₂SO₄) was added to each well. Absorbance of wells was recorded at 450 nm on an Envision plate reader (PerkinElmer). […] Variable slope (four parameters) curve was fit to the data and EC50 was used to compare binding affinities.

Experiment [7] concerns the target T2, human CD3 on the surface of T cells / …. The experiment in a line: flow cytometry on primary human pan T cells from cord blood.
For experiment [8] the target is unchanged. Kind of experiment: flow cytometry on CD3-expressing Jurkat cells. As to the method: The mouse heavy and light chain variable regions of SP34 clone were humanized and two humanized variants were tested for their binding affinities to CD3 in Jurkat cells (ATCC) expressing high levels of CD3. Jurkat cells were stained with various concentrations of humanized SP34 variants 2 and 6 (variant 2 VH and VL are SEQ ID NOs: 67 and 68, respectively; variant 6 VH and VL are SEQ ID NOs: 69 and 70, respectively) antibodies prepared in PBS+2% BCS+2 mM EDTA (flow buffer). Cells were washed five times with flow buffer and stained with anti-human IgG Fc antibody conjugated to Alexa Flour 488 (Jackson Immunoresearch Laboratories, 109-095-008). Cells were stained with 7-AAD (7-AAD Viability Staining Solution, Biolegend 420404) followed by flow cytometry analysis.

Several values for one entry are separate records, joined by “and”; a condition that tells them apart may be missing. Equal entries are not always repeated.

T2 sequence (P07766 23-207, chain 1 of 3): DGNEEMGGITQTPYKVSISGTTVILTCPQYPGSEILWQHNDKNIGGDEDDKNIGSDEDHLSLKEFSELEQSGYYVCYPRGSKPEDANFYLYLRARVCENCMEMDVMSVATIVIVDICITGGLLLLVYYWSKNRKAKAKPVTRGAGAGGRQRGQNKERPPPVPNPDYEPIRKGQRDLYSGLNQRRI
T2 sequence (P09693 23-182, chain 2 of 3): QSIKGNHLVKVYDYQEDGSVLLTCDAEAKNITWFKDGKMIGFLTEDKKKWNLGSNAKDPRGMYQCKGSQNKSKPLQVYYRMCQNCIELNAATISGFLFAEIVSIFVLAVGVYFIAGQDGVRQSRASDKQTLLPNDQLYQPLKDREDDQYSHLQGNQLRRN
T2 sequence (P04234 22-171, chain 3 of 3): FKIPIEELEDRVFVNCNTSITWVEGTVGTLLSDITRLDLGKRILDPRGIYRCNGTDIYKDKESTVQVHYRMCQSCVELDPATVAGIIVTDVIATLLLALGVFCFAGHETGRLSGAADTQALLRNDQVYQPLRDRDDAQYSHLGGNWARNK
T3 sequence (P07766 23-126, change not shown): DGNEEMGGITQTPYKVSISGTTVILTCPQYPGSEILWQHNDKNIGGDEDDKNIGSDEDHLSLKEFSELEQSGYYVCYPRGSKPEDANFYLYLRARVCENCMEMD

B1: chimeric monoclonal anti-FLT3 antibody 118BA (antibody, V domains shown)
VH: QVTLKESGPGILQPSQTLSLTCSFSGFSLSTSTMGVGWIRQPSGKGLEWLLHILWNDSKYYNPALKSRLTISKDTYNKQVFLKIANVDTADTATYYCARIVYYSTYVGYFDVWGAGTTVTVSS
VL: DIQMTQSPSSLSASLGERVSLTCRASQEISGYLSWLQQKPDGTIKRLIYAASTLHSGVPKRFSGSRSGSDYSLTISRLESEDVADYYCLQYASYPFTFGSGTKLEIK
B1: in experiment [1], the midpoint of the response, the EC50, lay at 0.77 nM.

B2: humanized 118BA variant 1 (antibody, V domains shown)
VH: QVTLKESGPTLVKPTQTLTLTCTFSGFSLSTSTMGVGWIRQPPGKALEWLAHILWNDSKRYNPSLKSRLTITKDTSKKQVVLTMTNMDPVDTATYYCARIVYYSTYVGYFDVWGQGTTVTVSS
VL: DIQMTQSPSSLSASVGDRVTITCRASQEISGYLSWLQQKPGKAIKRLIYAASTLQSGVPSRFSGSRSGSDYTLTISSLQPEDFATYYCLQYASYPFTFGQGTKLEIK
notes: detected with anti-human IgG Fc; also called 18BA-v1; 1-18BA-v1
The molecule B2 showed an EC50 in experiment [2] of 0.4 nM.

B3: humanized 118BA variant 5 (antibody, V domains shown)
VH: QITLKESGPTLVKPTQTLTLTCTFSGFSLSTSTMGVGWIRQPPGKALEWLAHILWNDDKRYGPSLKSRLTITKDTSKKQVVLTMTNMDPVDTATYYCARIVYYSTYVGYFDVWGQGTTVTVSS
VL: EIVMTQSPGTLSLSPGERATLSCRASQEISGYLSWLQQKPGQAIRRLIYAASTRATGIPDRFSGSRSGSDYTLTISRLEPEDFAVYYCLQYASYPFTFGQGTKLEIK
notes: detected with anti-human IgG Fc; also called 18BA-v5
In turn, B3 came in with an EC50 in experiment [2] of 0.72 nM.

B4: CD3xFLT3 bispecific antibody 118BA #3C (bispecific antibody, human IgG1, lambda)
heavy: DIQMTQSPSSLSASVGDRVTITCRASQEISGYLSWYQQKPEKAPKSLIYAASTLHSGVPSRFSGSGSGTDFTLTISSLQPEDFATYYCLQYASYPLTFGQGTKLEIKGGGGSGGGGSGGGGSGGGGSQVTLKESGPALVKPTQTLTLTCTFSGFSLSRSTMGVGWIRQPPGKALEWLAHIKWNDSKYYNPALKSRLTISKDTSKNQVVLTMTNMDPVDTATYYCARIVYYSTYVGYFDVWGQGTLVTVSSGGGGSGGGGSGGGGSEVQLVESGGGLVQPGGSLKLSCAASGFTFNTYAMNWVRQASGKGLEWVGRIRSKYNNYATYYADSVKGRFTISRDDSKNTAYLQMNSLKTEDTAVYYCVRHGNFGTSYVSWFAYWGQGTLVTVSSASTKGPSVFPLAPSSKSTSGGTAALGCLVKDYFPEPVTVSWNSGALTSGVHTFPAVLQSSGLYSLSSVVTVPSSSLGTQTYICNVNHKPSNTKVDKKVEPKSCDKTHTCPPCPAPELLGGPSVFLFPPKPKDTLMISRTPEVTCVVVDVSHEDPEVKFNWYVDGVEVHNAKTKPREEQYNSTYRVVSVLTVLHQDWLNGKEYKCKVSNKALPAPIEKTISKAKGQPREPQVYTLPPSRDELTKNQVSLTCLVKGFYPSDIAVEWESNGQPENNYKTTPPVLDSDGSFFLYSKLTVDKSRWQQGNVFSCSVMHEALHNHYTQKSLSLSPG
light: QAVVTQEPSFSVSPGGTVTLTCGSSTGAVTTSNYANWVQQTPGQAFRGLIGGTNKRSSGVPDRFSGSLLGDKAALTITGAQADDESDYYCALWFSNHWVFGGGTKLTVLGGQPKAAPSVTLFPPSSEELQANKATLVCLISDFYPGAVTVAWKADSSPVKAGVETTTPSKQSNNKYAASSYLSLTPEQWKSHRSYSCQVTHEGSTVEKTVAPTECS
As to B4, the EC50 in experiment [3] stood at 32 nM; in experiment [5], 0.9 nM. For the same molecule, the “EC50 of cytotoxicity against REH cells” value in experiment [4] is 0.013 nM.

B5: CD3xFLT3 bispecific antibody 118BA #3A (bispecific antibody, human IgG1, lambda)
heavy: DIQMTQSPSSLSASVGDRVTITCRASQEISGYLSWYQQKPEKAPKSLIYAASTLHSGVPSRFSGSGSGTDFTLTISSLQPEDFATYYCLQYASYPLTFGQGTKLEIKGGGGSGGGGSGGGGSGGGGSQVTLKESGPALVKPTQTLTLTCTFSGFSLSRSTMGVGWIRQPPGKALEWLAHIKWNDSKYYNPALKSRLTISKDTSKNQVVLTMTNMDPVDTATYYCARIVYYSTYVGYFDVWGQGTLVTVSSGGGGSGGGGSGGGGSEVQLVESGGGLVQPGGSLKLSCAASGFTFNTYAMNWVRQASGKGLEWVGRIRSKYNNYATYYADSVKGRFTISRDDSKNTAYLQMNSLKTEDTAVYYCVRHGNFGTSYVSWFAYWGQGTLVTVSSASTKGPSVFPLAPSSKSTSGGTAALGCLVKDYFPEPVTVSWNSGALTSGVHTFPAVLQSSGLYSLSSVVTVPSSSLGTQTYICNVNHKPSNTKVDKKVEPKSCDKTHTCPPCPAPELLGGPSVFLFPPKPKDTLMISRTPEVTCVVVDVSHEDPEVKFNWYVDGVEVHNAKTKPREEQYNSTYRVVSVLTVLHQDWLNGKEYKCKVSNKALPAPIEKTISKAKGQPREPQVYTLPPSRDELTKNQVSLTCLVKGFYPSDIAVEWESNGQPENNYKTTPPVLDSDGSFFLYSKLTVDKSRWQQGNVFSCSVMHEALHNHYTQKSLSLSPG
light: QAVVTQEPSFSVSPGGTVTLTCGSSTGAVTTSNYANWVQQTPGQAFRGLIGGTNKRSSGVPDRFSGSLLGDKAALTITGAQADDESDYYCALWYSNLWVFGGGTKLTVLGGQPKAAPSVTLFPPSSEELQANKATLVCLISDFYPGAVTVAWKADSSPVKAGVETTTPSKQSNNKYAASSYLSLTPEQWKSHRSYSCQVTHEGSTVEKTVAPTECS
On to B5, for which the EC50 in experiment [3] worked out at 15.5 nM; in experiment [5], 1.18 nM. The “EC50 of cytotoxicity against REH cells” value in experiment [4] was determined as 0.013 nM.

B6: CD3xFLT3 bispecific antibody 118BA #3B (bispecific antibody, human IgG1, lambda)
heavy: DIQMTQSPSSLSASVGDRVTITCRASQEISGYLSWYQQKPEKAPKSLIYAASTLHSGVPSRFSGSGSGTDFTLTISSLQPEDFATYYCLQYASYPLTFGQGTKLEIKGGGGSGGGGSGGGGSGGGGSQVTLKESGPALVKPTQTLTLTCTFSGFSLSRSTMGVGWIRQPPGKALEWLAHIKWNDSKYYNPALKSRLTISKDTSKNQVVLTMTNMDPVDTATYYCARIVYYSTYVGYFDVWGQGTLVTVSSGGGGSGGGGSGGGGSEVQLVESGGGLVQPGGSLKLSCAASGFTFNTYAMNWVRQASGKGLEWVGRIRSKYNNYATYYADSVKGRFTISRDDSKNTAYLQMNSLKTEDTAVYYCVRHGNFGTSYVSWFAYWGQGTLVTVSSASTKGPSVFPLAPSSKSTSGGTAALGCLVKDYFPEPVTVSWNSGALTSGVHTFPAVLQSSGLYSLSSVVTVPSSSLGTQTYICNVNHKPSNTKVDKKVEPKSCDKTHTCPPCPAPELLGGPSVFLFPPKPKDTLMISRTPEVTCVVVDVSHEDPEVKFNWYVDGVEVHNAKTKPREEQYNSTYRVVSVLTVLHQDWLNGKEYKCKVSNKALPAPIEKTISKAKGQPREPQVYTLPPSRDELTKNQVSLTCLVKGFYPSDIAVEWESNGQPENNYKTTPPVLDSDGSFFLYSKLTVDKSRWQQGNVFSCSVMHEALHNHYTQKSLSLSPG
light: QAVVTQEPSFSVSPGGTVTLTCGSSTGAVTTSNYANWVQQTPGQAFRGLIGGTNKRVSGVPDRFSGSLLGDKAALTITGAQADDESDYYCALWFSNHWVFGGGTKLTVLGGQPKAAPSVTLFPPSSEELQANKATLVCLISDFYPGAVTVAWKADSSPVKAGVETTTPSKQSNNKYAASSYLSLTPEQWKSHRSYSCQVTHEGSTVEKTVAPTECS
With B6, the EC50 in experiment [3] was 13.6 nM; in experiment [5] it was 1.23 nM. Further, the “EC50 of cytotoxicity against REH cells” value in experiment [4] worked out at 0.017 nM.

B7: CD3xFLT3 bispecific antibody 118BA #3a1 (bispecific antibody, human IgG1, lambda)
heavy: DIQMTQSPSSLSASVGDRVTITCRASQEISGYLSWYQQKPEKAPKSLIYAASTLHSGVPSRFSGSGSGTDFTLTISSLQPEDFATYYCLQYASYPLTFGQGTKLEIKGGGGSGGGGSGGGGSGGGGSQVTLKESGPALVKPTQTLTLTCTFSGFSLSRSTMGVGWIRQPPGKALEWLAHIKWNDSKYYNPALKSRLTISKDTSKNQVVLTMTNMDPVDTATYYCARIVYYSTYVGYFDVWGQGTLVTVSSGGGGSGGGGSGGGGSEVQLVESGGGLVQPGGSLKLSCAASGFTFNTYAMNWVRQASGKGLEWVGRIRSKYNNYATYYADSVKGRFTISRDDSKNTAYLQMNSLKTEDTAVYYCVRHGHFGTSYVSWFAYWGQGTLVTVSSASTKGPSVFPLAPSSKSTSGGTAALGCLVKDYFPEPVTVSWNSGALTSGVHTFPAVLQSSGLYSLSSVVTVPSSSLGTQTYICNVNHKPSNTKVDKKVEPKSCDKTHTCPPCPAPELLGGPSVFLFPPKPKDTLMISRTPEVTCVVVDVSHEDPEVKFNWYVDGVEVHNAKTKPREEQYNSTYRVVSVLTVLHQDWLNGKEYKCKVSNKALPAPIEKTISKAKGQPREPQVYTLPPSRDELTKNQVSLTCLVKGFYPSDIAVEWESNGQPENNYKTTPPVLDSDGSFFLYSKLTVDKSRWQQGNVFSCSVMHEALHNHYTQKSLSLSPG
light: QAVVTQEPSFSVSPGGTVTLTCGSSTGAVTTSNYANWVQQTPGQAFRGLIGGTNKRSSGVPDRFSGSLLGDKAALTITGAQADDESDYYCALWFSNHWVFGGGTKLTVLGGQPKAAPSVTLFPPSSEELQANKATLVCLISDFYPGAVTVAWKADSSPVKAGVETTTPSKQSNNKYAASSYLSLTPEQWKSHRSYSCQVTHEGSTVEKTVAPTECS
For B7, in experiment [4], the “EC50 of cytotoxicity against REH cells” value stood at 0.33 nM. Also, the EC50 was 1.17 nM in experiment [5]; 0.0331 µg/mL and 0.16 nM in experiment [6].

B8: chimeric monoclonal anti-CD3 IgG SP34 clone (antibody, V domains shown)
VH: EVQLVESGGGLVQPKGSLKLSCAASGFTFNTYAMNWVRQAPGKGLEWVARIRSKYNNYATYYADSVKDRFTISRDDSQSILYLQMNNLKTEDTAMYYCVRHGNFGNSYVSWFAYWGQGTLVTVSS
VL: QAVVTQESALTTSPGETVTLTCRSSTGAVTTSNYANWVQEKPDHLFTGLIGGTNKRAPGVPARFSGSLIGDKAALTITGAQTEDEAIYFCALWYSNLWVFGGGTKLTVL
Molecule B8 had an EC50 in experiment [7] of 3.2 nM.

B9: humanized SP34 variant 2 (antibody, human IgG1, V domains shown)
VH: EVQLVESGGGLVQPGGSLKLSCAASGFTFNTYAMNWVRQASGKGLEWVGRIRSKYNNYATYYADSVKGRFTISRDDSKSTAYLQMNSLKTEDTAVYYCVRHGNFGNSYVSWFAYWGQGTLVTVSS
VL: QAVVTQEPSLTVSPGGTVTLTCGSSTGAVTTSNYANWVQQKPGQAFRTLIGGTNKKHPWTPARFSGSLLGGKAALTLSGAQPEDEAEYYCALWYSNLWVFGGGTKLTVLG
notes: also called humSP34-v2; humanized anti-CD3 SP34 variant 2
In turn, B9 returned an EC50 in experiment [8] of 2.38 nM.

B10: humanized SP34 variant 6 (antibody, human IgG1, V domains shown)
VH: EVQLVESGGGLVQPGGSLKLSCAASGFTFNTYAMNWVRQASGKGLEWVGRIRSKYNNYATYYADSVKGRFTISRDDSKNTAYLQMNSLKTEDTAVYYCVRHGNFGNSYVSWFAYWGQGTLVTVSS
VL: QAVVTQEPSFSVSPGGTVTLTCGSSTGAVTTSNYANWVQQTPGQAFRGLIGGTNKRSSGVPDRFSGSLLGDKAALTITGAQADDESDYYCALWYSNLWVFGGGTKLTVLG
notes: also called humSP34-v6; humanized anti-CD3 SP34 variant 6
Turning to B10, in experiment [8], the midpoint of the response, the EC50, lay at 3.2 nM.

(Values after patent publication US20240368288A1 (HEMOGENYX PHARMACEUTICALS, published 2024).)
